Assay results: US20260117244A1, “INHIBITORY RNA FOR THE CONTROL OF PHYTOPATHOGENS” (priority 2021, published 2026)

Test system: E. necator
Assay: SIGS, E. necator spore production on V. vinifera (whole plant and leaf disc assays)
Type: in vivo, Erysiphe necator
Conditions: for visual powdery mildew coverage and density: V. vinifera leaves, 9 days post infection, vs buffer alone
Text: Spore suspension concentrations were normalized to the input tissue weight (g) before being normalized to the control.
Spore suspension concentrations were normalized to the input tissue weight (g) before being normalized to the control. CYP51 is included as a positive control gene required for growth. Error bars±SEM. *p<0.05 by Student's T-Test (unpaired, 2-tailed) compared to control.
With SIGS methods optimized and gene targets identified, we sought to translate these methods and targets to grape powdery mildew (FIG. 2). New long dsRNAs were designed for each target tested as there is significant sequence divergence between G. orontii MGH1 and E. necator c. First, procedures were optimized for the grapevine system by silencing CYP51. Spore production was reduced by 62% and 45% in grapevine whole plant and leaf disc assays, respectively when treated with long dsRNA against the same region of CYP51 as dsRNA-1 against G. orontii MGH1 CYP51 (FIG. 2; FIG. 7, panel a). […] We tested SIGS against the effective targets including AATF in the grapevine system, as we were interested in ascertaining whether they would show a statistically significant difference in grape powdery mildew spore production. […] The average reduction of powdery mildew spore production for SIGS against CYP51 and AATF was greater in E. necator compared to G. orontii (FIG. 4 and FIG. 7). One notable difference is G. orontii has 2 copies each of CYP51 and AATF while E. necator has 1 copy of each of these genes. SIGS against the other effective targets also were effective in reducing powdery mildew of grapevine (FIG. 7).
As the full G. orontii MGH1 OEC60/OEC61 is conserved in other powdery mildews (Table 6) and has the potential to interact with both TCP13 and TCP14, we tested whether findings in the G. orontii MGH1-Arabidopsis pathosystem can translate to an agriculturally important pathosystem, powdery mildew of grapevine. To do so, we identified an OEC60/OEC61 homolog in E. necator c (Jones et al., 2014) and designed a long dsRNA to target this gene in the same region effective for G. orontii. Targeting of OEC60/OEC61 in Erysiphe necator by SIGS reduces grape powdery mildew production on V. vinifera leaves to 71% of control treated plants (FIG. 12), similar to the reduction seen with the Arabidopsis powdery mildew (FIG. 10, panel d).

B1: E. necator AATF dsRNA: long dsRNA against E. necator AATF (target SEQ ID NO:197) (nucleic acid)
chain: TGATAGCGATCATGATAGATGCGACTCAAATTTTAGTAATAGGAATGACAAAGAGATTATTAAACGGTCTGAAATTCAAAGATTTATGGAAGAAGATCAAAAAGCAATATTATCAACTTTATCTCAAGCAGCAAAGGTAGATGCAGAAAAGGGAAGGGCAATTAAGTCACAACAAATGAGATTCGATTCTCTTCTAAATACGCGAATGGAGCTGCAGAAAGCTCTGATAGCAGTTAATTCTCTTACTACCTTTCAAGATGATAATTCTATTTTCTCCAAGGATAAGCCATACGAAGCAGC
modifications: misc_feature 1..300: note = Inhibitory double stranded RNA; listed as RNA
average reduction in spore production (long dsRNA, assay format not stated (FIG. 7)): 53%

B2: E. necator OEC60/OEC61 dsRNA: long dsRNA against E. necator homolog of OEC60/OEC61 (target SEQ ID NO:199) (nucleic acid)
chain: CTGCTACTAGCTTTCATGGTATGAAACTCATTATTGGTGTTTTTATTGGTGAAACTGGTTGCTCTGGCGCTAAAGAGCAGGTGAACCACATCGTTAAATGGGGTAAATGGGATTTGGTAGAACTCATTGTGATCGGGAATGAGGCTCTGTTTAGTGGTCATGCGTCACCCGAAGAGTTAGCCGAATTTATTACCTCGACTAAAATCACCCTCAGATCAGC
modifications: misc_feature 1..220: note = Inhibitory double stranded RNA; listed as RNA
effect on grapevine powdery mildew growth and reproduction / spore production (E. necator on V. vinifera, SIGS): reduces spore production
grape powdery mildew spore production relative to control treated plants (V. vinifera leaf discs (FIG. 12), long dsRNA): 71 % of control

B3: EnCYP51: long dsRNA against E. necator CYP51 (target SEQ ID NO:182) (nucleic acid)
chain: TGTCAACGCCGAAGAGATTTACACTAATTTAACAACTCCGGTCTTTGGAAGAGATGTTGTATTTGATTGTCCAAATTCCAAACTCATGGAACAAAAAAAGTTTATGAAAACGGCTCTTACCATTGAAGCGTTCCATTCCTATGTAACAATAATACAAAATGAAGTAGAGGCATATATAAACAATTGCGTTAGCTTTCAGGGTGAGAGTGGCACAGTAAACATCTCAAAAGTTATGGCGGAAATCACTA
modifications: misc_feature 1..248: note = Inhibitory double stranded RNA; listed as RNA
visual powdery mildew coverage and density: Less powdery mildew density
visual powdery mildew coverage and density (listed as E. necator CYP51 dsRNA): less powdery mildew coverage and density
reduction in spore production (grapevine leaf disc assay, long dsRNA): 45%
reduction in spore production (grapevine whole plant assay, long dsRNA): 62%
